# In patent US7534592 (Takeda / Millennium, dated 2009):
# B1: recombinant ACC2 catalytic domain (carboxyltransferase domain of human Acetyl-Coenzyme A Carboxylase 2, residues 1715-2483 of SEQ. ID No. 1) with a … (enzyme)
# chain: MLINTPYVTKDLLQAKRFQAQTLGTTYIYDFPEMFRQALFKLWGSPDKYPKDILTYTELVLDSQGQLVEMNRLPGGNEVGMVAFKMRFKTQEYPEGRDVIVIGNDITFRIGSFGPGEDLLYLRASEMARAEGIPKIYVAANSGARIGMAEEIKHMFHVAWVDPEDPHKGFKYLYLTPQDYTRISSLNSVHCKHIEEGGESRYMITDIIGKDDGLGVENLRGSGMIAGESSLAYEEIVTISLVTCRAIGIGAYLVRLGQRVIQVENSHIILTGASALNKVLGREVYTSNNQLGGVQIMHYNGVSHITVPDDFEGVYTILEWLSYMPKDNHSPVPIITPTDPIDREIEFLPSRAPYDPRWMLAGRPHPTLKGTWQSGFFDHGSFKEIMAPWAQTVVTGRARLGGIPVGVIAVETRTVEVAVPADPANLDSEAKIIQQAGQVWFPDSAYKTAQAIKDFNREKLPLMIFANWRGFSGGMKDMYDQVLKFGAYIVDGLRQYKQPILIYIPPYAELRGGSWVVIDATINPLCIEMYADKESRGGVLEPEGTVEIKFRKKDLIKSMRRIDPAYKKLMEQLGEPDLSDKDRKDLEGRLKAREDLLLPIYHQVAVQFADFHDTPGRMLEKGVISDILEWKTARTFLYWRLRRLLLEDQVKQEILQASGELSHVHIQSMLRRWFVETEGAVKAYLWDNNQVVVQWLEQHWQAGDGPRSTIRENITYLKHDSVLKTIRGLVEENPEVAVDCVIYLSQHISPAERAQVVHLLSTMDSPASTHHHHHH
# modifications: one acetylation observed by mass spectrometry (position not given)
# notes: The entries describe its self-association into the homodimer (two copies of this chain); Expressed in Sf9 insect cells; In the crystal it is in complex with acetyl-CoA, a small molecule; also called carboxyltransferase domain of ACC2; ID No. 3
# Target: the molecule itself
# Assay: analytical size-exclusion chromatography; self-association (homodimer)
protein,measurement,value
B1,binding result,binds
